Results from patent publication US11981935B2, “7β-hydroxysteroid dehydrogenase mutants and process for the preparation of ursodeoxycholic acid” (PharmaZell GmbH, priority 2010, dated 2024).

T1: 7β-HSDH from Collinsella aerofaciens DSM 3979 (ATCC 25986), wild type, SEQ ID NO:2 (Collinsella aerofaciens, UniProt A4ECA9)
T1 construct: The gene coding for 7β-HSDH was once again amplified from the genomic DNA by PCR; made in house; host or cells: E. coli BL21(DE3), pET-28a(+)
T1 sequence (A4ECA9 1-263): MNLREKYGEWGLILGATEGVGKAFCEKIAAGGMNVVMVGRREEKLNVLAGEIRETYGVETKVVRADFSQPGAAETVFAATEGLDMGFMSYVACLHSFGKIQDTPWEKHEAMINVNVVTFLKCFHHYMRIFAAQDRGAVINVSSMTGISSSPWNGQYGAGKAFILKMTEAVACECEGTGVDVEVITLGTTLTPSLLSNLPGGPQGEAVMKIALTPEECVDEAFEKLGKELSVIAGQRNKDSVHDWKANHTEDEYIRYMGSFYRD

B1: 7β-HSDH WT: 7β-hydroxysteroid dehydrogenase from Collinsella aerofaciens ATCC 25986 (DSM 3979), SEQ ID NO:2, NADPH-dependent (protein, listed as Collinsella aerofaciens)
chain: T1 sequence (A4ECA9 1-263)

Key:
[1] = target: 7β-HSDH from Collinsella aerofaciens DSM 3979 (Collinsella aerofaciens, UniProt A4ECA9); assay type: biochemical
[2] = target: T1, 7β-HSDH from Collinsella aerofaciens DSM 3979 (ATCC 25986), wild type, SEQ ID NO:2; assay: Enzyme assay and kinetic analysis of 7β-HSDH (Lineweaver-Burk); assay type: biochemical; conditions: pH 8, 25° C.
[3] = assay type: biochemical, Collinsella aerofaciens; conditions: 100 μM NADPH
[4] = Preparative biotransformation of 7-keto-LCA by 7β-HSDH with ADH regeneration, HPLC; assay type: biochemical, Collinsella aerofaciens DSM 3979; conditions: isolated enzyme with ADH and 2-propanol for NADPH regeneration, 24° C., 24 hours
[5] = Photometric activity of 7β-HSDH variants with NADPH or NADH (production example 7); assay type: biochemical, Collinsella aerofaciens

| Molecule | kcat [1] | kcat [2] | residual activity (23° C., 1500 min) [%] | activity at 30° C. lower than at 23° C. (after 400 min) | activity loss during storage (−20° C., potassium phosphate buffer 50 mM pH 8, some months, repeated freezing and thawing) | maximum attainable enzyme activities (specific enzyme activities at the maxima of the kinetic curves) [3] [U/mg] | enzyme activity at substrate concentration of 10 mM dehydrocholic acid ([3]; 10 mM dehydrocholic acid) [U/mg] | conversion of 7-keto-LCA to UDCA [4] [%] | Specific activity NADH ([5]; cofactor NADH) [U/mg] | Volumetric activity NADH ([5]; cofactor NADH) [U/ml] | Specific activity NADPH ([5]; cofactor NADPH) [U/mg] | Volumetric activity NADPH ([5]; cofactor NADPH) [U/ml] |
| --- | --- | --- | --- | --- | --- | --- | --- | --- | --- | --- | --- | --- |
| NC(=O)c1ccc[n+]([C@@H]2O[C@H](COP(=O)([O-])OP(=O)(O)OC[C@H]3O[C@@H](n4cnc5c(N)ncnc54)[C@H](O)[C@@H]3O)[C@@H](O)[C@H]2O)c1 [NAD^+] | Traces | Traces |  |  |  |  |  |  |  |  |  |  |
| NC(=O)C1=CN([C@@H]2O[C@H](COP(=O)(O)OP(=O)(O)OC[C@H]3O[C@@H](n4cnc5c(N)ncnc54)[C@H](O)[C@@H]3O)[C@@H](O)[C@H]2O)C=CC1 [NADH] | Traces | Traces |  |  |  |  |  |  |  |  |  |  |
| B1 |  |  | 20 | about 30% | No significant activity loss | ~13 | ~6.7 | 90 | 0 | 0 | 5.6 | 134 |
